Measured values: article PMC9811221 (2022)

Biological target: PD-L1-Fc fusion protein (Invitrogen) (human, UniProt Q9NZQ7 19-238)
Test: BLI

PD-L1-Fc fusion protein (Invitrogen), sequence (Q9NZQ7 19-238): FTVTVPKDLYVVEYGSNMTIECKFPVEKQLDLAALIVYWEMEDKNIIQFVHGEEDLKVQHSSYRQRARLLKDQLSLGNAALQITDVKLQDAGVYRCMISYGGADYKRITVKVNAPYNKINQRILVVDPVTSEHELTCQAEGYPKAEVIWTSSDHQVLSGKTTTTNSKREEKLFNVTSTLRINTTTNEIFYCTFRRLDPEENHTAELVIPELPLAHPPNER

B1: VHH21 (VHH)
VHH: EVQLVESGGGLVQTGGSLRLSCAASGRTFDSYFMGWFRQAPGKEREFVAAISGSGSLTSYEDGVKGRFTISRDNAKNTVSLQMTNLKPEDTAVYYCASCLSCAFINGRQVDSRYYNYWGQGTQVTVSS
Kd: 5100 nM

B2: VHH13 (VHH)
VHH: EVQLVESGGGLVQPGGSLRLSCAASGSTFSINAMGWYRQAPGKQRELVAAISSGGSTNYADSVKGRFTISRDNAKNTVYLQMNSLKPEDTAVYYCNTINIGTFISLGGSPLGSWGQGTQVTVSS
Kd: 1300 nM

B3: VHH2 (VHH)
VHH: QVQLVESGGGSVQPGGSLRLSCAASGSIVGHAVQAWYRQAPGKQRDLVAQLFDNGKTNIADSVKGRFTISGDNAKNTFYLQMNNLKPEDTAIYYCAILILPSMGVPPNIYEGQGTQVTVSS
Kd: 2200 nM

B4: VHH18 (VHH)
VHH: EVQLVESGGGWVQTGGSLRLSCAASGSTFDIKRMAWYRQAPGKEREFVADIWSEGSTHYADSVKGRFTISRDSAKNTMYLYMNSLKPEDTAVYYCNVEYVLRTYWGQGTQVTVSS
Kd: 720 nM

B5: VHH16 (VHH)
VHH: QVQLVESGGGWVQTGGSLRLSCAASGSTFDIKRMAWYRQAPGKEREFVADIWSEGSTHYADSVKGRFTISRDSAKNTMYLQMNSLKPEDTAAYYCNVGNTWGQGTQVTVSS
Kd: 180 nM

B6: VHH17 (VHH)
VHH: EVQLVESGGGLVQAGGSLRLSCAASGRTFSAYAMGWFRQAPGKERELVAGISWSGGMTYYADSVKGRFTISRDNAKNMVYLQMNSLKAEDTAVYYCAGGFSAVVPDHPDEYHYWGQGTQVTVSS
Kd: 330 nM

B7: VHH19 (VHH)
VHH: EVQLVESGGGSVQAGASLRLSCAASGFPFSHYAIGWFRQAPGKEREFVTSIDRSGINTYYADSVKGRFTISRDNAKNAVSLQMNSLKPDDTAVYYCAAGPRLVTSPELYPYWGQGTQVTVSS
Kd: 1600 nM

B8: VHH20 (VHH)
VHH: EVQLVESGGGSVQAGGSLRLSCVASGIAFSESPMAWYRQAPGRQREFVADVSADNKPYYRDTLKGRFTISRDNDKNSVYLQMNFLQPEDTAVYYCNALLLEAGTIKNYWGQGTQVTVSS
Kd: 340 nM

B9: VHH10 (VHH)
VHH: EVQLVESGGGLVQAGDSLRLSCAASGRAFSGYAMAWFRQAPEKEREFVAAITWRGGTPYYAVRAKGRFTISRDSAKNTAYLEVNSLKPEDTATYYCAAPSLQVATMDVKDYAYWGQGTLVTVSS
Kd: 190 nM

B10: VHH22 (VHH)
VHH: EVQLVESGGGLVQAGGSLKLSCAASGRTFSGNTMGWFRQAPGKERELVTVVSSGGSTYYSDSVKGRFTISRDNALNTVYLQMNSLKPEDTAVYYCAAASLISGLTTTRRLFDYWGQGTQVTVSS
Kd: 2700 nM

B11: VHH14 (VHH)
VHH: EVQLVESGGGLVQAGDSLRLSCTASARTFIKYAMGWFRQAPGKEREFVAAISWSGSRTTYADSVKGRFTISRDNDKNTVYLQMNTLEPEDTAIYYCAKAKGGYHSSQYDYDYWGQGTQVTVSS
Kd: 290 nM
